Test results: paper PMC2708863 (The Journal of Biological Chemistry, 2009)
Where two headings read alike, the source gives them in different places.

B1: ^3FnIII, third type III domain of human fibronectin (residues 810–900) (domain or fragment)
chain: not shown
B2: ^2–3FnI, human fibronectin residues 93–182 (domain or fragment, UniProt P02751 93-182, looked up)
chain: AEETCFDKYTGNTYRVGDTYERPKDSMIWDCTCIGAGRGRISCTIANRCHEGGQSYKIGDTWRRPHETGGYMLECVCLGNGKGEWTCKPI

Assays:
Test in all cases: NMR titration
[1] = target: T1, ^4–5FnI, human fibronectin residues 183–275 (human, UniProt P02751 183-275)
^4–5FnI (R222A) = ^4–5FnI (R222A) (human, UniProt P02751 183-275, R222A)
[2] = target: T1, ^4–5FnI, human fibronectin residues …; remark: listed apart in the source
[3] = target: B1

T1 sequence (P02751 183-275): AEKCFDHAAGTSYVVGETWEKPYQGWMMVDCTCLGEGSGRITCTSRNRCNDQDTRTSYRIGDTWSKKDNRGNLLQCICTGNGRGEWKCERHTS
Sequence of ^4–5FnI (R222A) (P02751 183-275 R222A): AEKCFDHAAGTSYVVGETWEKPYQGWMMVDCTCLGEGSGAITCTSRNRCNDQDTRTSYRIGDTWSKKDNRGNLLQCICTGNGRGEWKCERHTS

Binder | Kd [1] [µM] | fold reduction of affinity against the wild-type interaction (^4–5FnI (R222A)) [fold] | Kd [2] [µM] | Kd [3] [µM]
B1 | 800 ± 46 | > 20 | 146 ± 9 | 
B2 |  |  |  | 820 ± 70
